Reference: patent publication US20040058416A1
pIC50: −log10 of the molar value.

Target: trkB-IgG immunoadhesin (human trkB extracellular domain fused to human IgG-1 Fc) (human)
Assay: competitive displacement of iodinated BDNF from trkB-IgG by unlabelled NT4/5

Sequence of trkB-IgG immunoadhesin (human trkB extracellular domain fused to human IgG-1 Fc) (human) (Q16620 32-423): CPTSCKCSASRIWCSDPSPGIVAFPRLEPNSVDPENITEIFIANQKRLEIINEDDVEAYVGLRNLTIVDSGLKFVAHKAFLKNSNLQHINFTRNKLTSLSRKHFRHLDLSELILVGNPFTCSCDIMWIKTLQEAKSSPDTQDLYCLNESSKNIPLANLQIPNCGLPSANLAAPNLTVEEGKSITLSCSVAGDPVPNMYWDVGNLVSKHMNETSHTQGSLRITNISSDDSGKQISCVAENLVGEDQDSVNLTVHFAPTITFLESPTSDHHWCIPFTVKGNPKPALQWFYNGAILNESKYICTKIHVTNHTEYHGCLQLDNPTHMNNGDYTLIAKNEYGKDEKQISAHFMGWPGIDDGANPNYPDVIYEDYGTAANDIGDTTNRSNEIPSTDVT

“neurotrophin-4/5 (NT-4/5) (from UniProt P34130 81-210) (ligand)” was tested, and the pIC50 was 9.70.
